Data published in patent US20250361274A1, “PEPTIDE AND PEPTIDE-CONTAINING AGENT” (PEPTIDREAM INC., priority 2022, published 2025).
Numbered stars: 1 amine (or outer) side, 2 acyl side, 3 side chain; on linkers, the order of the positions; unused ones are H or OH. Bridge positions count the residues as written; N and C are the ends. Square brackets hold non-standard residues; d marks the D form. Ends that are not written are not given here. * marks the point of attachment. KCOpipzaa = N6-(4-(carboxymethyl)piperazine-1-carbonyl)-L-lysine, O=C(NCCCC[C@H](N[*:1])C(=O)[*:2])N1CCN(CC(=O)[*:3])CC1; X8 = 4‑(carboxymethyl)piperazine‑1‑carbonyl, O=C(O)CN1CCN(C(=O)*)CC1; 3Pal(6-Ph) = N[C@@H](Cc1ccc(-c2ccccc2)nc1)C(=O)O; Phe(4-COOH) = N[C@@H](Cc1ccc(C(=O)O)cc1)C(=O)O; NMePhe(4-Me) = CN[C@@H](Cc1ccc(C)cc1)C(=O)O; Bip = N[C@@H](Cc1ccc(-c2ccccc2)cc1)C(=O)O; Phe(4-F) = N[C@@H](Cc1ccc(F)cc1)C(=O)O; Hyp = O=C(O)[C@@H]1C[C@@H](O)CN1; NMeF = CN[C@@H](Cc1ccccc1)C(=O)O; 4Pal = N[C@@H](Cc1ccncc1)C(=O)O; Aad = N[C@@H](CCCC(=O)O)C(=O)O; Cha = N[C@@H](CC1CCCCC1)C(=O)O; Cba = N[C@@H](CC1CCC1)C(=O)O; Abu = CC[C@H](N)C(=O)O; βAla = NCCC(=O)O

How the values were obtained:
BMP4 = target: T1, BMP4 (Homo sapiens, UniProt P12644); assay: BMP4 signal transduction inhibitory activity: SMAD1 phosphorylation by BMP4 stimulus, AlphaLISA SureFire, A549 cells; format: cell-based; settings: for aLISA BMP4: A549 cells
T1 sequence (P12644 293-408): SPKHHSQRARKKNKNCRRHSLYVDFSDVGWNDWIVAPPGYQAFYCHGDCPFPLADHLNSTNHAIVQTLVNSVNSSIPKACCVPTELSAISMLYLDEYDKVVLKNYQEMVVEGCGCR

BMP7 = target: T2, BMP7 (Homo sapiens, UniProt P18075); assay: BMP7 signal transduction inhibitory activity: SMAD1 phosphorylation by BMP7 stimulus, A549 cells; format: cell-based; settings: for aLISA BMP7: A549 cells
T2 sequence (P18075 293-431): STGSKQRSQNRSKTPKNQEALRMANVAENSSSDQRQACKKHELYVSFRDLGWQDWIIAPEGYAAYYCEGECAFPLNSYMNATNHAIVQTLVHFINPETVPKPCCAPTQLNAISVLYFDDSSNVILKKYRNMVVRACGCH
In short: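 A549 cells were stimulated with 10 nM BMP7, and peptide inhibition of signalling was measured as SMAD1 phosphorylation. Peptides were tested at three concentrations, in sets ranging from 1–100 nM to 100–1,000 nM, or as eight-point 1/3 dilution series starting at 100 nM or 1,000 nM.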

[1] = BMP4 0.2 nM stimulus, peptide conc. in assay 0.02, 0.2, 2 nM, class symbols
[2] = BMP7 10 nM stimulus, peptide conc. in assay 100, 300, 1000 nM, class symbols
[3] = BMP4 0.2 nM stimulus, peptide conc. in assay 0.2, 2, 20 nM
[4] = BMP7 10 nM stimulus, peptide conc. in assay 1, 10, 100 nM
[5] = inhibition of SMAD1 phosphorylation by BMP4 stimulus, AlphaLISA, class by peptide concentration zone
[6] = inhibition of SMAD1 phosphorylation by BMP7 stimulus, AlphaLISA, class by peptide concentration zone
[7] = inhibition of SMAD1 phosphorylation by BMP4 stimulus, peptides of Synthesis 2, classes A-C, ND
[8] = inhibition of SMAD1 phosphorylation by BMP7 stimulus, peptides of Synthesis 2, classes A-D, ND

315 (ERV[Phe(4-COOH)][Cba][KCOpipzaa]R[3Pal(6-Ph)][KCOpipzaa]Y[Hyp][Bip][4Pal][Phe(4-COOH)][Phe(4-COOH)]SCG-NH2) [compound 315]
aLIZA BMP4 (0.2 nM) % inh (BMP4; BMP4 0.2 nM, peptide 0.02, 0.2, 2 nM, Table 6): B (showed less than 30% of inhibitory activity in 0.02 nM-addition zone and showed 30% or more of inhibitory activity in 0.2 nM-addition zone) | aLIZA BMP7 (10 nM) % inh (BMP7; BMP7 10 nM, peptide 10, 100, 1000 nM, Table 6): E (showed less than 30% of inhibitory activity in 100 nM-addition zone and showed 30% or more of inhibitory activity in 1,000 nM-addition zone)

371 (FGFGFGDDAAFLHCG; not fully specified; MOD_RES 3 F represents Methyl-L-phenylalanine(MeF); MOD_RES 5 F represents (S)-3-(1,1'-Biphenyl-4-yl)-2-aminopropanoic acid(Bph); MOD_RES 9 A represents (S)-2-Amino-3-cyclohexylpropanoic acid(Cha); MOD_RES 11 F represents Methyl-L-phenylalanine(MeF)) [compound 371]
aLISA BMP4 (0.2 nM) % inh (BMP4; SMAD1 phosphorylation, BMP4 0.2 nM, peptide conc. in assay 2, 20, 200 nM): A (showed less than 30% of inhibitory activity in 2 nM-peptide-addition zone and showed 30% or more of inhibitory activity in 20 nM-addition zone) | aLISA BMP7 (10 nM) % inh (BMP7; SMAD1 phosphorylation, BMP7 10 nM, peptide conc. in assay 10, 30, 90 nM): E (showed 30% or more of inhibitory activity in 10 nM-addition zone)

324 (FG[NMeF]GFGDD[Cha]A[NMeF]LHCG-NH2) [compound 324]
aLISA BMP4 (0.2 nM) % inh (BMP4; SMAD1 phosphorylation, BMP4 0.2 nM, peptide conc. in assay 0.2, 2, 20 nM): ND (the inhibitory activity was less than 30% at the maximum concentration evaluated) | aLISA BMP7 (10 nM) % inh (BMP7; SMAD1 phosphorylation, BMP7 10 nM, peptide conc. in assay 1, 10, 100 nM): D (showed less than 30% of inhibitory activity in 10 nM-addition zone and showed 30% or more of inhibitory activity in 100 nM-addition zone)

280 (ERV[Phe(4-COOH)]VDR[3Pal(6-Ph)][KCOpipzaa]Y[Hyp][Bip][4Pal][Phe(4-COOH)][Phe(4-COOH)]SC[βAla]) [compound 280]
aLIZA BMP4 (0.2 nM) % inh (BMP4; [1]): B (showed less than 30% of inhibitory activity in 0.02 nM-addition zone and showed 30% or more of inhibitory activity in 0.2 nM-addition zone) | aLIZA BMP7 (10 nM) % inh (BMP7; [2]): H (showed less than 30% of inhibitory activity in 300 nM-addition zone and showed 30% or more of inhibitory activity in 1,000 nM-addition zone)

257 (TRVYVDR[3Pal(6-Ph)]SYV[Bip]Y[Phe(4-COOH)][Phe(4-COOH)]SCG-NH2; not fully specified) [compound 257]
aLIZA BMP4 (0.2 nM) % Inh (BMP4; SMAD1 phosphorylation by BMP4 stimulus, peptide conc. in assay 0.02, 0.2, 2 nM, class symbols): C (showed less than 30% of inhibitory activity in 0.2 nM-addition zone and showed 30% or more of inhibitory activity in 2 nM-addition zone) | aLIZA BMP7 (10 nM) % Inh (BMP7; SMAD1 phosphorylation by BMP7 stimulus, peptide conc. in assay 10, 100, 1000 nM, class symbols): E (showed less than 30% of inhibitory activity in 100 nM-addition zone and showed 30% or more of inhibitory activity in 1,000 nM-addition zone)

397 (FG[NMePhe(4-Me)]G[Bip]GDD[Cha]A[NMePhe(4-Me)]LHCG-NH2; not fully specified) [compound 397]
aLISA BMP4 (0.2 nM) % inh (BMP4; [3]): ND (the inhibitory activity was less than 30% at the maximum concentration evaluated) | aLISA BMP7 (10 nM) % inh (BMP7; [4]): D (showed less than 30% of inhibitory activity in 10 nM-addition zone and showed 30% or more of inhibitory activity in 100 nM-addition zone)

286 (ERV[Phe(4-COOH)]VDR[3Pal(6-Ph)][KCOpipzaa]Y[Hyp][Bip][4Pal][Phe(4-COOH)][Phe(4-COOH)]SC[βAla][dE]-OH; not fully specified (N-terminus, bridges); also: cyclic peptide, ring not given here) [compound 286]
aLIZA BMP4 (0.2 nM) % inh (BMP4; [1]): B (showed less than 30% of inhibitory activity in 0.02 nM-addition zone and showed 30% or more of inhibitory activity in 0.2 nM-addition zone) | aLIZA BMP7 (10 nM) % inh (BMP7; [2]): G (showed less than 30% of inhibitory activity in 100 nM-addition zone and showed 30% or more of inhibitory activity in 300 nM-addition zone)

40 ({CH2CO}-ASVYVDK[Bip]PYP[Bip]Y[Phe(4-COOH)][Phe(4-COOH)]SCG-NH2; thioether N-17; not fully specified) [compound 40]
aLISA BMP4 (BMP4; SMAD1 phosphorylation, peptides of Synthesis 2, peptide 0.02, 0.2, 2 nM): D (showed inhibitory activity of less than 50% in 2 nM-addition zone) | aLISA BMP7 (BMP7; 10 nM BMP7, peptides of Synthesis 2, peptide 1, 10, 100 nM): ND (the inhibitory activity was less than 30% at the maximum concentration evaluated)

62 (Ac-A[KCOpipzaa]VYVD[KCOpipzaa][Bip]PYP[Bip][4Pal][Phe(4-COOH)][Phe(4-COOH)]SCG-NH2; thioether (positions not given here); not fully specified (bridges)) [compound 62]
aLISA BMP4 (BMP4; [5]): D (showed inhibitory activity of less than 50% in 2 nM-addition zone) | aLISA BMP7 (BMP7; [6]): ND (the inhibitory activity was less than 30% at the maximum concentration evaluated)

103 ({CH2CO}-ERV[Phe(4-COOH)]V[KCOpipzaa]R[Bip]SYP[Bip]Y[Phe(4-COOH)][Phe(4-COOH)]SC[βAla][dE]-OH; thioether N-17; not fully specified) [compound 103]
aLISA BMP4 (BMP4; [7]): A (showed an inhibitory activity of 50% or more in a zone to which the peptide was added to in an amount of 0.2 nM) | aLISA BMP7 (BMP7; [8]): A (showed 50% or more of inhibitory activity in a zone to which the peptide was added in an amount of 1 nM)

124 ({CH2CO}-ERV[Phe(4-COOH)]V[KCOpipzaa]R[Bip]SYV[Bip]Y[Phe(4-COOH)][Phe(4-COOH)]SC[βAla][dE]-OH; thioether N-17; not fully specified) [compound 124]
aLISA BMP4 (BMP4; [7]): A (showed an inhibitory activity of 50% or more in a zone to which the peptide was added to in an amount of 0.2 nM) | aLISA BMP7 (BMP7; [8]): C (showed less than 50% of inhibitory activity in 10 nM-addition zone and showed 50% or more of inhibitory activity in 100 nM-addition zone)

405 (FG[NMeF]G[Bip]GDE[Cha]Q[NMeF]L[Phe(4-COOH)]CG; not fully specified) [compound 405]
aLISA BMP4 (0.2 nM) % inh (BMP4; [3]): ND (the inhibitory activity was less than 30% at the maximum concentration evaluated) | aLISA BMP7 (10 nM) % inh (BMP7; [4]): D (showed less than 30% of inhibitory activity in 10 nM-addition zone and showed 30% or more of inhibitory activity in 100 nM-addition zone)

46 (ARVYVDR[Bip]PYP[Bip]Y[Phe(4-COOH)][Phe(4-COOH)]SC) [compound 46]
aLISA BMP4 (BMP4; [5]): A (showed an inhibitory activity of 50% or more in a zone to which the peptide was added to in an amount of 0.2 nM) | aLISA BMP7 (BMP7; [6]): ND (the inhibitory activity was less than 30% at the maximum concentration evaluated)

421 ([Phe(4-F)]G[NMeF]G[3Pal(6-Ph)]GDE[Cha][Aad][NMePhe(4-Me)]L[Abu]C[βAla][dE]; also: cyclic peptide, ring closure not given here) [compound 421]
aLISA BMP4 (0.2 nM) % inh (BMP4; [3]): ND (the inhibitory activity was less than 30% at the maximum concentration evaluated) | aLISA BMP7 (10 nM) % inh (BMP7; [4]): D (showed less than 30% of inhibitory activity in 10 nM-addition zone and showed 30% or more of inhibitory activity in 100 nM-addition zone)

45 (Ac-AK(X8)VYVK(X8)K[Bip]PYP[Bip]Y[Phe(4-COOH)][Phe(4-COOH)]SCG-NH2; thioether (positions not given here); not fully specified (bridges)) [compound 45]
aLISA BMP4 (BMP4; [5]): A (showed an inhibitory activity of 50% or more in a zone to which the peptide was added to in an amount of 0.2 nM) | aLISA BMP7 (BMP7; [6]): ND (the inhibitory activity was less than 30% at the maximum concentration evaluated)
